Paper PMC3155373 (2011)

Target: Green fluorescent protein (acid-denatured) (Aequorea victoria, UniProt P42212 = GFP)
Experiment: GFP refolding fluorescence kinetics (one-site fit, apparent Kd)

Binder | Kd
Protein disulfide isomerase (HuPDI) (protein) not shown | 180 nM
Protein disulfide isomerase (YPDI) (protein) PEDSAVVKLATDSFNEYIQSHDLVLAEFFAPWCGHCKNMAPEYVKAAETLVEKNITLAQIDCTENQDLCMEHNIPGFPSLKIFKNSDVNNSIDYEGPRTAEAIVQFMIKQSQPAVAVVADLPAYLANETFVTPVIVQSGKIDADFNATFYSMANKHFNDYDFVSAENADDDFKLSIYLPSAMDEPVVYNGKKADIADADVFEKWLQVEALPYFGEIDGSVFAQYVESGLPLGYLFYNDEEELEEYKPLFTELAKKNRGLMNFVSIDARKFGRHAGNLNMKEQFPLFAIHDMTEDLKYGLPQLSEEAFDELSDKIVLESKAIESLVKDFLKGDASPIVKSQEIFENQDSSVFQLVGKNHDEIVNDPKKDVLVLYYAPWCGHCKRLAPTYQELADTYANATSDVLIAKLDHTENDVRGVVIEGYPTIVLYPGGKKSESVVYQGSRSLDSLFDFIKENGHFDVDGKALYEEAQEKAAEEADADAELADEEDAIHDEL | 300 nM
